We go through one substance from PMC3530536.

In the experiment the target is recombinant RRM2 domain (aa 190–265) of human WT TDP-43 (human) (UniProt Q13148). Description: SEC; Superdex 75 10/300 in PBS, 0.5 mL/min; soluble RRM2 2–3 mg/mL after heat at 70°C for 10 min, nucleotide-free.

Broadly, the stoichiometry N is the number of molecules, sites or subunits per partner or assembly. For the substance “recombinant RRM2 domain (aa 190–265) of human WT TDP-43 (from UniProt Q13148 190-265) (domain or fragment)”, the stoichiometry N came out at 2.
